# Biological target: the molecule itself
# Experiment: SEC
protein,measurement,value
methanethiol oxidase (MTO) of Hyphomicrobium sp. VS (enzyme) DETCNSPFTTALITGQEQYLHVWTLGMPGVGDESDKLVTISVDPKSDKYGKVINTLSVGGRGEAHHTGFTDDRRYLWAGRLDDNKIFIFDLIDPANPKLIKTITDFADRTGYVGPHTFYALPGRMLIQALSNTKTHDGQTGLAVYSNAGELVSLHPMPVTDGGDGYGYDIGINPAKNVLLTSSFTGWNNYMMDLGKMVKDPEAMKRFGNTMAIWDLKSMKAEKILNVPGAPLEIRWSLKPEHNWAYTATALTSKLWLIKQDDKGEWIAKETGTIGDPSKIPLPVDISITADAKGLWVNTFLDGTTRFYDISEPEHPKEVFSKKMGNQVNMVSQSYDGKRVYFTTSLIANWDKKGAENDQWLKAYDWDGKELVEKFTVDFNELKLGRAHHMKFSSKTNAAELGTNQSFPTRQ,stoichiometry N,4
